Measured values published in article PMC3743062 (Scientific Reports, 2013).

Biological target: Calmodulin (CaM), wild type (UniProt P0DP23 1-149)
Test: crystal structure

Question: Does EEVSAVVLQRAYRGHLARRGFI (domain or fragment) [NaV1.6 IQ motif (1893-1914), the part of the fusion CaM-(Gly)5-NaV1.6 IQ] bind?
Answer: binds
